This note sets out measurements from PMC10755771.

The assay concerns the target STAM1-His (signal-transducing adaptor molecule 1, wild type) (UniProt Q92783).

With “βarrestin1 (untagged, wild type) (from UniProt P49407 1-418) (natural protein)”, the in vitro ubiquitination of STAM1 by AIP4 with βarr1 at 0-320 nM, 90 min at 37 °C; EC50 for βarr1 from the STAM1 immunoblots came out at 48.7 nM and the in vitro ubiquitination of STAM1 by AIP4 with βarr1 at 0-320 nM, 90 min at 37 °C; EC50 for βarr1 from the ubiquitin immunoblots came out at 49.8 nM.
